The supplement of paper PMC10126150
± gives the standard deviation of the averaged measurements.

test system: ATP; assay: switch fluorescence ratio, 500 uM ATP over buffer (Cy3 cluster intensity, sum of 5 cycles each) (fold (ratio)); higher = stronger signal-on switching upon ATP binding; sequences stand for … in TCGTCGGCAGCGTCAGATGTGTATAAGAGACAGTTTTTTTTTTTTTTTTTTTTTTTTT…TC; details: aptamer strand: ATP DNA aptamer (quencher-CACCTGGGGGAGTATTGCGGAGGAAGG + anchor), 100 nM annealed; ATP concentration: 500 uM
Method in brief: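 Imaging in selection buffer was followed by imaging after 15 min with 500 uM ATP at 22 °C, for Cy3-labelled switching-strand clusters annealed to 100 nM quencher-labelled ATP aptamer on a modified Illumina MiSeq flow-cell. Five of these buffer/ATP cycles ran, separated by NaOH stripping and re-annealing. The fluorescence ratio per cluster is summed target-cycle over summed buffer-cycle Cy3 intensity, averaged per switch-domain sequence; clusters outside 100-1000 RFU were removed.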
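Also: ATP exposure 15 min at 22 °C before imaging.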

Sequence	switch fluorescence ratio
TGCATGGAGC	0.9946 ± 0.0042
TGCATGGATC	1.02 ± 0.012
TGCATGGGAG	1.001 ± 0.0039
TGCATGTCGC	0.991 ± 0.025
TGCATTTTGC	1.08 ± 0.023
TGCCAAATAG	1.02 ± 0.039
TGCCAATGAA	0.965 ± 0.02
TGCCAATGGG	1 ± 0.038
TGCCAGAAGG	1.021 ± 0.0041
TGCCAGGATT	1.25 ± 0.42
TGCCAGTTCG	1.02 ± 0.025
TGCCCGCCCT	1.08 ± 0.065
TGCCCGCTGC	1.27 ± 0.017
TGCCCGGACA	1.01 ± 0.027
TGCCCGGTTT	1.01 ± 0.0077
TGCCCTTCAT	1.04 ± 0.011
TGCCGAGGTG	1.38 ± 0.12
TGCCGGGAAA	1.01 ± 0.0084
TGCCGGTGGT	1.01 ± 0.035
TGCCGTGGGT	0.987 ± 0.04
TGCCTAGTTT	0.995 ± 0.064
TGCCTTAAGT	1.01 ± 0.063
TGCGAGGCGT	0.997 ± 0.021
TGCGAGGGTG	1.02 ± 0.065
TGCGATACGG	2.71 ± 0.12

Sequence	switch fluorescence ratio
TGCGATGAGG	1.01 ± 0.046
TGCGCCGGGT	1.12 ± 0.1
TGCGCGAAAT	0.995 ± 0.0021
TGCGCGCTGG	1 ± 0.041
TGCGCTATGT	1.07 ± 0.022
TGCGCTTGTC	0.974 ± 0.082
TGCGGAAAAC	1.72 ± 0.82
TGCGGATATA	1.04 ± 0.043
TGCGGGCCAT	1.027 ± 0.0067
TGCGGGGAGG	1.01 ± 0.0017
TGCGGGGCTT	0.997 ± 0.048
TGCGGGGGAG	0.996 ± 0.02
TGCGGGTCGG	1.03 ± 0.031
TGCGGTAAGG	1 ± 0.031
TGCGGTAATT	1.14 ± 0.16
TGCGGTTGGG	1.022 ± 0.003
TGCGTGAGGG	1.04 ± 0.016
TGCGTGTGGT	1.036 ± 0.0046
TGCGTGTGTC	1.05 ± 0.024
TGCGTGTTGA	1.04 ± 0.0081
TGCGTTACAG	1.01 ± 0.044
TGCGTTAGCC	1.035 ± 0.0025
TGCGTTGGAG	1.08 ± 0.057
TGCGTTTATT	0.994 ± 0.015
TGCGTTTCGA	1.03 ± 0.025

Sequence	switch fluorescence ratio
TGCGTTTGTT	0.996 ± 0.029
TGCTAGATAA	1 ± 0.039
TGCTAGCATT	1.11 ± 0.15
TGCTAGCTAT	1.02 ± 0.0029
TGCTAGGGAA	0.975 ± 0.015
TGCTAGGGAT	1.01 ± 0.029
TGCTAGGGTA	0.985 ± 0.012
TGCTAGGGTT	1 ± 0.032
TGCTAGTTCT	0.99 ± 0.016
TGCTATGGGC	1.01 ± 0.017
TGCTATTGTG	0.959 ± 0.02
TGCTATTTAC	1.1 ± 0.069
TGCTCCTTAG	1.07 ± 0.03
TGCTCGTATA	0.9852 ± 0.0062
TGCTCGTGCT	1.01 ± 0.028
TGCTCTAAGG	1.02 ± 0.046
TGCTCTTTCA	1 ± 0.025
TGCTGAAGGA	0.9743 ± 0.0064
TGCTGCCGGT	1.02 ± 0.096
TGCTGCGACG	1.003 ± 0.0022
TGCTGCTACC	1.07 ± 0.037
TGCTGGAGCT	1.06 ± 0.022
TGCTGGGGGC	0.971 ± 0.022
TGCTGGGGTA	0.99 ± 0.024
TGCTGTAGGG	0.966 ± 0.053

Sequence	switch fluorescence ratio
TGCTGTGGAA	1.011 ± 0.0096
TGCTTGCAAA	1.06 ± 0.069
TGCTTGGGGG	0.979 ± 0.016
TGCTTGGGTC	1.01 ± 0.028
TGCTTGTGTT	0.9912 ± 0.0064
TGCTTGTTAC	1.03 ± 0.018
TGCTTTAGGT	0.9922 ± 0.0092
TGCTTTATAT	1.18 ± 0.29
TGCTTTTGGG	0.976 ± 0.0021
TGCTTTTTCA	0.9895 ± 0.0042
TGGAAAGCCT	1.05 ± 0.1
TGGAAAGTGG	0.9818 ± 0.005
TGGAAAGTTT	1 ± 0.052
TGGAAATACG	1.06 ± 0.013
TGGAACGGAG	0.98 ± 0.021
TGGAACGGTT	1.04 ± 0.047
TGGAAGCGTT	0.98 ± 0.041
TGGAATGCGC	1.24 ± 0.36
TGGAATTAGC	1.04 ± 0.054
TGGAATTGCC	1.024 ± 0.0089
TGGAATTGGT	1.02 ± 0.032
TGGAATTGTT	1 ± 0.026
TGGACAATGG	1.03 ± 0.051
TGGACCCGGC	0.9858 ± 0.0054
TGGACGTGAT	1.83 ± 1

Sequence	switch fluorescence ratio
TGGACTACGC	1.06 ± 0.012
TGGACTAGGG	0.975 ± 0.049
TGGACTGGGG	0.9861 ± 0.0056
TGGACTTGGT	0.97 ± 0.017
TGGAGAGGAT	0.9825 ± 0.0026
TGGAGATTGT	0.943 ± 0.032
TGGAGGAAGA	1.04 ± 0.055
TGGAGGAGCG	0.955 ± 0.036
TGGAGGGATG	1.01 ± 0.054
TGGAGGGATT	1.02 ± 0.013
TGGAGGGGGA	0.999 ± 0.038
TGGAGGGTTG	1 ± 0.026
TGGAGGGTTT	1.07 ± 0.1
TGGAGGTGTT	1.03 ± 0.035
TGGAGTAGAT	0.986 ± 0.038
TGGAGTCAGG	1.05 ± 0.049
TGGAGTGTGG	0.912 ± 0.087
TGGATAAAGT	0.985 ± 0.013
TGGATAAGCG	1 ± 0.032
TGGATAAGTG	0.998 ± 0.048
TGGATACCCT	1.0117 ± 0.00031
TGGATATTTA	0.978 ± 0.012
TGGATCACTT	1.01 ± 0.028
TGGATCATAG	0.999 ± 0.038
TGGATCTTAT	1.01 ± 0.034

Sequence	switch fluorescence ratio
TGGATGAATT	0.9981 ± 0.0045
TGGATGATGG	0.961 ± 0.019
TGGATTACTT	1.02 ± 0.026
TGGATTAGGC	1.01 ± 0.048
TGGATTTAAT	1.01 ± 0.049
TGGATTTCGC	1 ± 0.027
TGGATTTTTG	0.9666 ± 0.0042
TGGCACGACA	1.09 ± 0.042
TGGCACTTTT	1.006 ± 0.0063
TGGCAGCAGG	1 ± 0.024
TGGCAGGCAC	1.04 ± 0.012
TGGCATCGGG	1.01 ± 0.042
TGGCCAAATT	1.03 ± 0.019
TGGCCGGCTT	1.044 ± 0.0066
TGGCCGTCAT	0.98 ± 0.032
TGGCCTTATT	0.992 ± 0.011
TGGCCTTGTG	1.02 ± 0.051
TGGCGAAGTT	0.997 ± 0.024
TGGCGAGGCG	1.046 ± 0.0077
TGGCGCGTAC	1.81 ± 0.095
TGGCGGGGCT	0.9972 ± 0.0064
TGGCGTGGGG	1.01 ± 0.021
TGGCGTTAGG	0.977 ± 0.019
TGGCTCTGGG	1.04 ± 0.033
TGGCTGCCGT	0.988 ± 0.032

Sequence	switch fluorescence ratio
TGGCTGGGGG	1.09 ± 0.1
TGGGAAAAAA	0.985 ± 0.035
TGGGAAAACG	1.05 ± 0.078
TGGGAAAAGG	1.16 ± 0.31
TGGGAAATAC	2.11 ± 0.12
TGGGAAATCG	1.03 ± 0.014
TGGGAACGAG	1.01 ± 0.017
TGGGAACGTC	1.0205 ± 2.8e-05
TGGGAACTTG	0.991 ± 0.028
TGGGAATAAT	1.03 ± 0.031
TGGGAATCAC	1.05 ± 0.017
TGGGAATGAA	0.992 ± 0.021
TGGGAATGGC	0.9555 ± 0.0094
TGGGAATTTC	1.035 ± 0.0034
TGGGACAAGC	0.979 ± 0.032
TGGGACAGCG	0.957 ± 0.031
TGGGACCCAT	1.02 ± 0.055
TGGGACCGGG	1 ± 0.059
TGGGACCTGG	1.07 ± 0.15
TGGGACGGGG	0.984 ± 0.025
TGGGACTGTA	1.14 ± 0.073
TGGGAGGTTG	0.994 ± 0.04
TGGGAGTAGC	0.9907 ± 0.0091
TGGGAGTTTC	0.978 ± 0.01
TGGGAGTTTT	1.02 ± 0.047

Sequence	switch fluorescence ratio
TGGGATAGAA	0.996 ± 0.019
TGGGATATA	1.01 ± 0.056
TGGGATCAGT	0.99 ± 0.021
TGGGATGTTA	0.9872 ± 0.0074
TGGGATTGAC	1.06 ± 0.019
TGGGATTTGA	0.993 ± 0.023
TGGGATTTTG	1.014 ± 0.0028
TGGGCAGATA	1.08 ± 0.1
TGGGCAGGCA	1 ± 0.028
TGGGCAGGGT	1.02 ± 0.016
TGGGCATAAA	1.006 ± 0.0012
TGGGCGCATT	1.68 ± 0.88
TGGGCGCCGT	0.957 ± 0.017
TGGGCGGGGA	1.03 ± 0.048
TGGGCTAAGC	1.03 ± 0.028
TGGGCTCGCC	1 ± 0.025
TGGGCTGTTT	1.012 ± 0.01
TGGGCTTAAG	1.02 ± 0.026
TGGGCTTCGT	0.994 ± 0.038
TGGGGAAACG	0.9455 ± 0.0068
TGGGGAATTG	0.969 ± 0.053
TGGGGAGAAA	1 ± 0.031
TGGGGAGGCT	1.04 ± 0.055
TGGGGAGGGC	1 ± 0.035
TGGGGATACC	0.987 ± 0.035
